The results in this text go back to patent US20100015664A1.

The target of data set [1] is T1, Fluorescence-labeled synthetic peptide AG FAGP (not fully specified).
T1 chain: AGFAGP

The target of data set [2] is T2, Fluorescence-labeled synthetic peptide G FAGP (not fully specified).
T2 chain: GFAGP

The target in data set [3] is T3, Fluorescence-labeled synthetic peptide GPAG FAG (not fully specified).
T3 chain: GPAGFAG

In data set [4] the target is T4, Fluorescence-labeled synthetic peptide GPAG FA (not fully specified).
T4 chain: GPAGFA

Data set [5] concerns the target T5, Fluorescence-labeled synthetic peptide GPAG F (not fully specified).
T5 chain: GPAGF

Data set [6] has as its target T6, Fluorescence-labeled synthetic peptide PAG FAGP (not fully specified).
T6 chain: PAGFAGP

In data set [7] the target is T7, Fluorescence-labeled synthetic peptide of Pro-Gln-Gly-Ile-Ala-Gly-Gln (not fully specified).
T7 chain: PQGIAGQ

In data set [8] the target is T8, Nma-Gly-Pro-Ala-Gly-Phe-Ala-Gly-Pro-Lys-(DNP)r-NH2 (not fully specified).
T8 chain: GPAGFAGPK

The target of data set [9] is T9, Nma-Gly-Pro-Gln-Gly-Phe-Gln-Gly-Pro-Lys-(DNP)r-NH2 (not fully specified).
T9 chain: GPQGFQGPK

The target in data set [10] is T10, Nma-Thr-Gln-Ser-Leu-Val-Thr-Pro-Lys-(DNP)r-NH2 (not fully specified).
T10 chain: TQSLVTPK

B1: Protease of the present invention, purified from the culture of Aureobacterium sp. MIM-CG-9535-I (FERM P-15326) (protein)
chain: LIVNTVNSIDDKWSDAQASALTYCVSTAFGARHADVVSAMESGAALWEAASSKIDFIYDSSADANCTTRNNAVLFSVEPVQTTQYIARAFFPSTAPRLQNVLIDDSIWTPGSSWTPTNVLGHELGHVLGFRHEHTRPEAGTCFEDDNWRPLTPYDSSSIMHYPQCNGSSADLSMTSVDTDGVVALYGN
For B1, the “Present or Absent of Specific degradation activity” value in [1] is “Absent”; in data set [2] it was “Absent”; in data set [3] it was “Absent”; in data set [4], “Absent”; in [5] it was “Absent”; in data set [6], “Present”. Moreover, the “Present or Absent of Specific degradation activity” value in data set [8] is on record as “Present”. The “Protease cutting activity (degradation of synthetic substrate)” value in data set [7] is reported as “(X) Does not degrade”; in [8], “(◯) Degrades”; in data set [9] it was “(◯) Degrades”; in [10] it was “(◯) Degrades”.
